In assay [1] the target is A2AR (human adenosine A2A receptor, non-fused) (human, UniProt P29274 1-412). Kind of assay: cell-based or functional assay.
Assay [2] has as its target A2AR-Nluc-spacer (human adenosine A2A receptor fused to NanoLuc on the N-terminal end, with spacer) (human, UniProt P29274 1-412). Put plainly: cell-based or functional assay.

Sequence of A2AR (human adenosine A2A receptor, non-fused) (P29274 whole entry, the tested form may be a part): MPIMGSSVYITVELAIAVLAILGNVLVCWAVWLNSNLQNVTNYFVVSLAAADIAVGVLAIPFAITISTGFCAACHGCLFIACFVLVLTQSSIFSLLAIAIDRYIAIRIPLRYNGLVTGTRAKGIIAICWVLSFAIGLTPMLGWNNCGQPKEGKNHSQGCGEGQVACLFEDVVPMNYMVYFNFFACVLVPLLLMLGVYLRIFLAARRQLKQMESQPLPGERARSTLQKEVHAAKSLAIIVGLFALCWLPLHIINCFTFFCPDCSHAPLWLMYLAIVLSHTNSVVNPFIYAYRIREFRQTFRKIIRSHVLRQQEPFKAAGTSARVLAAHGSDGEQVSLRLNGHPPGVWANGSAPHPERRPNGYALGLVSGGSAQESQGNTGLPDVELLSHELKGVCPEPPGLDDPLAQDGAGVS
Sequence of A2AR-Nluc-spacer (human adenosine A2A receptor fused to NanoLuc on the N-terminal end, with spacer) (P29274 whole entry, the tested form may be a part): as above

B1: Bovine adenosine deaminase (ADA) (enzyme, UniProt P56658 1-363, looked up)
chain: MAQTPAFNKPKVELHVHLDGAIKPETILYYGRKRGIALPADTPEELQNIIGMDKPLSLPEFLAKFDYYMPAIAGCREAVKRIAYEFVEMKAKDGVVYVEVRYSPHLLANSKVEPIPWNQAEGDLTPDEVVSLVNQGLQEGERDFGVKVRSILCCMRHQPSWSSEVVELCKKYREQTVVAIDLAGDETIEGSSLFPGHVKAYAEAVKSGVHRTVHAGEVGSANVVKEAVDTLKTERLGHGYHTLEDATLYNRLRQENMHFEVCPWSSYLTGAWKPDTEHPVVRFKNDQVNYSLNTDDPLIFKSTLDTDYQMTKNEMGFTEEEFKRLNINAAKSSFLPEDEKKELLDLLYKAYGMPSPASAEQCL
As to B1, the “EC50: concentration of ADA (0.1 ng/ml to 10 ug/ml) providing half-maximal increase in binding of 2.2 nM [3H]ZM 241385 to membranes of transfected HEK-293T cells” value in assay [1] was 4 ng/mL; in assay [2], 14 ng/mL.

(Values after paper PMC5818423, “Molecular Evidence of Adenosine Deaminase Linking Adenosine A2A Receptor and CD26 Proteins” (Frontiers in Pharmacology, 2018).)
